Here are results for one substance from patent publication US20250027901A1.

For the test, the target named is Maleimide-modified SpyTag peptide (MCA-SpyTag). Kind of test: QCMD, nanobody-SpyCatcher coupling to maleimide-SpyTag peptide on HDT SAM.

In the case of “VHH72-8 aa-spyCatcher-3C cleavage site-His8”, the Density per cm^2 worked out at 6.5e+12 per cm^2 and the gained mass (ng/cm^2) was found to be 313 ng/cm^2.
